Values of other authors, collected in patent US11535641B2, “Method for preparing GOS having reduced allergenicity” (FRIESLANDCAMPINA NEDERLAND B.V., priority 2017, dated 2022).
Read-outs that look alike come from different tables or passages of the source.

B1: C. terrestris M2 (mutant strain enzyme 1): β-galactosidase with N-terminal 130 residues of wild-type deleted, SEQ ID NO: 2 (protein, listed as Cryptococcus terrestris)
chain: ATTNQDAITPTATGPVGGQGTPAVNFTDYSSSSLEQFWNDWVGEVEEPPFAYVPEPPNPYPLPNAPPPIYPEYYTKRPKDILPDYKFPKDFLFGWATAAQQWEGAVKADGKGPSIWDWASRFPGFIADNTTSDVGDLGYYLYKEDLARIAALGANVYSFSMFWTRIFPFGKADSPVNQAGIDFYHDLIDYSWSLGIEPVVTLFHWDTPLALQLEYGGFASERIIDDYVNYAETVFKAYNGSVHKWVTFNEPVVFCSQMAAPVNTTLPPNLNSTIYPYTCSYHLVLAHAKTVKRFRELNIQGQIAFKSDNFVGIPWREGNQEDIDAVERHQAYQIGIFAEPIYNTGDWPDIVKNDLSPDILPRFTDDEIAMIKCTADFFPIDGYRDGYVQAVPGGVEACVANISNPLWPACNQVNFYDSTPAGWAIGTFGNWPTTPWLQNTWQFVRPFLADLAKRYPTEGGIYLSEFGFSEPFENDKTFIYQITQDSGRTAYFNSYLGEVLKGIVEDGIPIKGVFGWSMVDNFEWNSGLSTRFGVQYVDYNSPTRQRTFKRSALEMSEFWNAHRCSA
B2: WT strain enzyme: β-galactosidase from Cryptococcus terrestris strain MM13-F2171, SEQ ID NO: 1 (protein, listed as Cryptococcus terrestris)
chain: MIPASALLAAVPLLAQQVSAGILRRQNAAGSDSAAPDSIADASTGVVSSIATEAVSSGATGLVASVAMSFASSMATPTATVTGLSSETGAPSNTPMASASGSVPTTTSAVGSGDFDWVQTDGLPTITTTLATTNQDAITPTATGPVGGQGTPAVNFTDYSSSSLEQFWNDWVGEVEEPPFAYVPEPPNPYPLPNAPPPIYPEYYTKRPKDILPDYKFPKDFLFGWATAAQQWEGAVKADGKGPSIWDWASRFPGFIADNTTSDVGDLGYYLYKEDLARIAALGANVYSFSMFWTRIFPFGKADSPVNQAGIDFYHDLIDYSWSLGIEPVVTLFHWDTPLALQLEYGGFASERIIDDYVNYAETVFKAYNGSVHKWVTFNEPVVFCSQMAAPVNTTLPPNLNSTIYPYTCSYHLVLAHAKTVKRFRELNIQGQIAFKSDNFVGIPWREGNQEDIDAVERHQAYQIGIFAEPIYNTGDWPDIVKNDLSPDILPRFTDDEIAMIKCTADFFPIDGYRDGYVQAVPGGVEACVANISNPLWPACNQVNFYDSTPAGWAIGTFGNWPTTPWLQNTWQFVRPFLADLAKRYPTEGGIYLSEFGFSEPFENDKTFIYQITQDSGRTAYFNSYLGEVLKGIVEDGIPIKGVFGWSMVDNFEWNSGLSTRFGVQYVDYNSPTRQRTFKRSALEMSEFWNAHRCSA
B3: C. terrestris M6 (mutant strain enzyme 3): β-galactosidase with N-terminal 141 residues of wild-type deleted, SEQ ID NO: 4 (protein, listed as Cryptococcus terrestris)
chain: ATGPVGGQGTPAVNFTDYSSSSLEQFWNDWVGEVEEPPFAYVPEPPNPYPLPNAPPPIYPEYYTKRPKDILPDYKFPKDFLFGWATAAQQWEGAVKADGKGPSIWDWASRFPGFIADNTTSDVGDLGYYLYKEDLARIAALGANVYSFSMFWTRIFPFGKADSPVNQAGIDFYHDLIDYSWSLGIEPVVTLFHWDTPLALQLEYGGFASERIIDDYVNYAETVFKAYNGSVHKWVTFNEPVVFCSQMAAPVNTTLPPNLNSTIYPYTCSYHLVLAHAKTVKRFRELNIQGQIAFKSDNFVGIPWREGNQEDIDAVERHQAYQIGIFAEPIYNTGDWPDIVKNDLSPDILPRFTDDEIAMIKCTADFFPIDGYRDGYVQAVPGGVEACVANISNPLWPACNQVNFYDSTPAGWAIGTFGNWPTTPWLQNTWQFVRPFLADLAKRYPTEGGIYLSEFGFSEPFENDKTFIYQITQDSGRTAYFNSYLGEVLKGIVEDGIPIKGVFGWSMVDNFEWNSGLSTRFGVQYVDYNSPTRQRTFKRSALEMSEFWNAHRCSA

Tests used:
[1] = for Ratio in GOS (%) DP2*: lactose not included; for Amount of GOS (content of GOS in total sugar): 24 hours, 53% lactose, 1 U per g lactose
[2] = GOS yield about 50% (65° C., 24 hours)
[3] = acetate buffer (pH 6.0)
[4] = comparison of enzymes, GOS yield about 50%
[5] = comparison of enzymes, typical results when GOS yield about 50% (65° C., 24 hours)

Row | Molecule | Ratio in GOS (%) DP2* [1, 4] [%] | Ratio in GOS (%) DP3 [1, 5] [%] | Ratio in GOS (%) ≥ DP4 [1, 5] [%] | Ratio in DP3 (%) β1-2, β1-3 [2] [%] | Ratio in DP3 (%) β1-4 [2] [%] | Ratio in DP3 (%) β1-6 [2] [%] | optimum temperature [3] [°C] | Ratio in GOS (%) DP3 ([1]; reaction temperature 65° C.) [%] | Ratio in GOS (%) ≥ DP4 ([1]; reaction temperature 65° C.) [%] | Amount of GOS (content of GOS in total sugar) ([1]; reaction temperature 65° C.) [%] | Ratio in GOS (%) DP2* ([1]; reaction temperature 65° C.) [%] | Ratio in GOS (%) DP3 ([1]; reaction temperature 70° C.) [%] | Ratio in GOS (%) ≥ DP4 ([1]; reaction temperature 70° C.) [%] | Amount of GOS (content of GOS in total sugar) ([1]; reaction temperature 70° C.) [%] | Ratio in GOS (%) DP2* ([1]; reaction temperature 70° C.) [%] | also measured
1 | B1 | 25.3 | 60.5 | 14.2 | 20.7 | 79.0 | 0.4 | 70 | – | – | – | – | – | – | – | – | –
2 | B2 | 25.8 | 57.5 | 16.7 | 22.1 | 76.3 | 1.5 | 70 | 51.8 | 22.1 | 53.4 | 26.1 | 47.4 | 25.8 | 54.2 | 26.8 | enzyme activity retained ([3]; within the stable temperature range, 30 minutes): ≥ 80%
3 | B3 | 25.8 | 54.2 | 19.9 | 22.1 | 75.2 | 2.7 | 70 | 53.4 | 20.9 | 53.2 | 26.0 | 49.2 | 24.5 | 53.9 | 26.3 | Ratio in GOS (%) DP3 ([1]; reaction temperature 50° C.): 68.9%; Ratio in GOS (%) ≥ DP4 ([1]; reaction temperature 50° C.): 6.4%; Amount of GOS (content of GOS in total sugar) ([1]; reaction temperature 50° C.): 46.9%; Ratio in GOS (%) DP2* ([1]; reaction temperature 50° C.): 24.7%; Ratio in GOS (%) DP3 ([1]; reaction temperature 60° C.): 58.2%; Ratio in GOS (%) ≥ DP4 ([1]; reaction temperature 60° C.): 16.1%; Amount of GOS (content of GOS in total sugar) ([1]; reaction temperature 60° C.): 52.1%; Ratio in GOS (%) DP2* ([1]; reaction temperature 60° C.): 25.8%
